Here are results for 13 molecules from article PMC12014896 (2025).

The target in this experiment is SARS-CoV-2 spike RBD (Wuhan-Hu-1) (Severe acute respiratory syndrome …, UniProt P0DTC2). The experiment in a line: SPR. For orientation: Surface plasmon resonance follows binding to a sensor surface in real time, without labels.

B1: COVIC-64 (antibody)
chain: QVQLQESGGGLVQAGGSLRLSCAASGRTFSEYAMGWFRQAPGKEREFVATISWSGGSTYYTDSVKGRFTISRDNAKNTVYLQMNSLKPDDTAVYYCAAAGLGTVVSEWDYDYDYWGQGTQVTVSSGGSGGSQVQLQESGGGLVQAGGSLRLSCVASGSIFSINAMDWYRQAPGKQRELVAGITSGGSTNYGDFVKGRFTISRDNAKNTVYLQMDSLKPEDTAVYYCAAEVGGWGPPRPDYWGHGTQVTVSSGGGGSGGGGSKKKPLDGEYFTLQIRGRERFEMFRELNEALELKDAQAGKEPG
As usually defined, the Kd is the constant that tells how readily two partners part at equilibrium. Read a high Kd as a looser complex. In the case of B1, the Kd amounted to 169 nM.

B2: COVIC-164 (antibody, V domains shown)
VH: EVQLVESGGGLIQPGGSLRLSCAAAGLTVSSNYMNWVRQVPGKGLEWVSVIYSGGSTYYADSVKGRFTISRDNSKNTLYLQMNSLRAEDTAVYYCARDLGTLGMDVWGQGTTVTVSS
VL: DIQLTQSPSFLSASVGDRVTITCWASQGISTYLAWYQQKPGKAPKLLIYAASTLQSGVPSRFSGSGSGTEFTLTISSLQPEDFATYYCQQLNSYLPTFGQGTKVEIKR
In turn, B2 had a Kd of 2.25 nM.

B3: COVIC-249 (antibody, V domains shown)
VH: QVQLVQPGGGVIQPGRSLRLSCTASGFTFSSYPMHWVRQAPGKGLEWVAVISYDGDNKYYADSVKGRFTISRDNSKNTLYLQMNSLKSDDTAMYYCARDYVVVILSDSFYYGMDVWGQGTTVTVSS
VL: QSALTQPRSVSGSPGQSVTISCTGTSSDVGGYNYVSWYQQYPGKAPKLMIYDVSKRPSGVPDRFSGSKSGNTASLTISGLQGEDEADYYCCSYAGSYTYVFGTGTKVTVL
For the molecule B3, the Kd was found to be 9.81 nM.

B4: COVIC-367 (antibody, V domains shown)
VH: EVQLVESGGGLVQPGRSLRLSCAASGFTFDDYAMHWVRQAPGKGLEWVSGVSWNSGTIGYADSVKGRFIISRDNAKNSLYLQMRSLRAEDTALYYCAKDVSVYRFREQSYGMDVWGQGTTVTVLS
VL: QSALTQSASVSGSPGQSITISCTGTSSDIGGYNFVSWYQQHPGKAPKLMIYEVTTRPSGVSNRFSGSKSGNTASLTISGLQAEDEADYYCSSYTSSSLVVFGGGTKLALLG
As to B4, the Kd came out at 0.0301 nM.

B5: COVIC-391 (antibody, V domains shown)
VH: QVQLVQSGAEVKKPGSSVKVSCKASGGTFSSYVINWVRQAPGQGLEWMGGIIPTLGTTNYAQKFQGRVTITADKSTSTAYMELSSLRSEDTAVYYCARAGGYSGSGSNYYMDVWGKGTTVTVSS
VL: QSVLTQPPSVSGAPGQRVTISCTGSSSNIGAGYDVHWYQQLPGTAPKLLIYANNNRPSGVPDRFSGSNSGTSASLAITGLQAEDEADYYCQSYDSSLSDSVFGGGTKLTVL
For B5, binding was characterised by a dissociation constant (Kd) of 0.0198 nM.

B6: COVIC-129 (antibody)
chain 1: QVQLQESGGGLVQAGGSLRLSCAASGRTFSEYAMGWFRQAPGKEREFVATISWSGGSTYYTDSVKGRFTISRDNAKNTVYLQMNSLKPDDTAVYYCAAAGLGTVVSEWDYDYDYWGQGTQVTVSSGGSGGSQVQLQESGGGLVQAGGSLRLSCAASGRTFSEYAMGWFRQAPGKEREFVATISWSGGSTYYTDSVKGRFTISRDNAKNTVYLQMNSLKPDDTAVYYCAAAGLGTVVSEWDYDYDYWGQGTQVTVSSGGGGSGGGGSASTKGPSVFPLAPSSKSTSGGTAALGCLVKDYFPEPVTVSWNSGALTSGVHTFPAVLQSSGLYSLSSVVTVPSSSLGTQTYICNVNHKPSNTKVDKKVEPKSCDKTHTCPPCPAPELLGGKKKPLDGEYFTLQIRGRERFEMFRELNEALELKDAQAGKEPG
chain 2: QVQLQESGGGLVQAGGSLRLSCAASGRTFSEYAMGWFRQAPGKEREFVATISWSGGSTYYTDSVKGRFTISRDNAKNTVYLQMNSLKPDDTAVYYCAAAGLGTVVSEWDYDYDYWGQGTQVTVSSGGSGGSQVQLQESGGGLVQAGGSLRLSCAASGRTFSEYAMGWFRQAPGKEREFVATISWSGGSTYYTDSVKGRFTISRDNAKNTVYLQMNSLKPDDTAVYYCAAAGLGTVVSEWDYDYDYWGQGTQVTVSSGGGGSGGGGSKRTVAAPSVFIFPPSDEQLKSGTASVVCLLNNFYPREAKVQWKVDNALQSGNSQESVTEQDSKDSTYSLSSTLTLSKADYEKHKVYACEVTHQGLSSPVTKSFNRGEC
Molecule B6 returned a Kd of 135 nM.

B7: COVIC-306 (antibody, V domains shown)
VH: QVQLVESGGGLVKPGGSLRLSCAASGFTVGSNYMSWVRQAPGKGLEWVSVIYSGGSTYYADSVKGRFTISRDNSKNTLYLQMNSLRAEDTAVYYCARGSSGAWYFDLWGRGTLVTVSS
VL: EIVMTQSPSSLSASVGDSVTITCQASQDISNYLNWYQQKPGKAPKLLIYDASNLETGVPSRFSGGGSGTDFTLTITSLQPEDIATYYCQQYDNFPPTFGPGTKVDIKR
Regarding B7, the dissociation constant (Kd) came to 26.3 nM.

B8: COVIC-166 (antibody, V domains shown)
VH: QVQLVESGGGVVQPGRSLRLSCAASGFTFSSYGMHWVRQAPGKGLEWVAVISYDGSDKYYADSVKGRFTISRDNSKNTLYLQMNSLRAEDTAVYYCAKTVAGYYYYYYGMDVWGQGTTVTVSS
VL: DIQMTQSPSSVSASVGDRVTVTCRASQDISSWLAWFQQKPGKAPKFLIYDASNLENGVPSRFSGSGSGTDFTLTISSLQPEDFATYYCQQAKSFPWTFGQGTKVEINR
Turning to B8, the Kd turned out to be 0.826 nM.

B9: COVIC-311 (antibody)
chain 1: QVQLVESGGGVVQSGRSLRLSCAASGFTFSSYAMHWVRQAPGKGLEWVAVISHDGSNTYYEDSVKGRFTISRDNSKNTLHLQVNSLRVEDTAVYYCARAKGEVRYFDWAEQGGDYWGQGTLVTVSSGGGGSGGGGSGGGGQVQLVQSGAEVKKPGSSVKVSCKASGGTFGISWVRQAPGQGLEWMGRIIPILGTANHAQKFQGRVTITADKSTGTVYMELSSLRSEDTAVYYCARDGDSGSYYETLGFDYWGQGTLVTVSS
chain 2: SYELTQPPSVSVSPGQTARITCSGDALPKKYAYWYQQKSGQAPVLVIYEDSKRPSGIPERFSGSSSGTMATLTISGAQVEDEADYYCYSTDNSGDHGVFGGGTKLTVLGGGGSGGGGSGGGGQSALTQPPSASGSPGQSVTISCTGTSSDVGGYNYVSWYQQHPGKAPKLMIYEVNKRPSGVPDRFSGSKSGNTASLTVSGLQAEDEADYYCSSYAGSNNLVFGGGTKLTVL
As for B9, the Kd was 3.03 nM.

B10: COVIC-140 (antibody, V domains shown)
VH: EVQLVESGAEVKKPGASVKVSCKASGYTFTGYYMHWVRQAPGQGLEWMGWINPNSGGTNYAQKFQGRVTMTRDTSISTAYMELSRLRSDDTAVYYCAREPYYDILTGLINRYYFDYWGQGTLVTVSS
VL: QSALTQPASVSGSPGQSITISCTGTSSDVGGYNFVSWYQQHPGKAPKLMIYEVSNRPSGVSNRFSGSKSGNTASLTISGLQAEDEADYYCSSYTSSSTRVFGGGTKLTVL
On to B10, for which the Kd was determined as 190 nM.

B11: COVIC-385 (antibody, V domains shown)
VH: EVQLVESGGGLVQPGGSLRLSCKASGISVAPHAVTWVRQAPGKGLEWIGVIASNADTYYASWAKGRFTISRDNSKNTLYLQMNSLRAEDTAVYYCARHPGSAGYGYTYYYAMDPWGQGTLVTVSS
VL: DIQMTQSPSSLSASVGDRVTITCQASERVFYGIDWYQQKPGKAPKLLIYGASALWHGVPSRFSGSGSGTDYTLTISSLQPEDFATYYCQQGYMVPIGFGGGTKVEIK
For the molecule B11, binding was put at a Kd of 0.0327 nM.

B12: COVIC-172 (antibody, V domains shown)
VH: QVQLVESGGDVVQPGRSLRLSCAASGFTFSRYGMHWVRQAPGKGLEWVAVISYDGSDKYYADSVKGRFTISRDNSKNTLYLQMNSLRAEDTAVYYCAKQLPLYYYYYGMDVWGQGTTVTVSS
VL: AIQLTQSPSSLSASVGDRVTITCRASQGISSALAWYQQKPGKAPNLLIYDASSLESGVPSRFSGSGSGTDFTLTISSLQPEDFATYYCQQFNIYPHTFGPGTKVDIKR
Molecule B12 showed a Kd of 9.47 nM.

B13: COVIC-309 (antibody, V domains shown)
VH: EVQLVESGGGLVQPGRSLRLSCAASGFTFDDYAMHWVRQAPGKGLEWVSGISWNSGSIGYADSVKGRFTISRDNAKNSLHLQMNSLRAEDTALYYCANLLTPPRRYSGYDLREDYFEYWGQGTLVTVSS
VL: SSELTQDPAVSVALGQTVRITCQGDSLRSYYASWYQQKPGQAPVLVIYDRNNRPSGIPDRFSGSSSGNTASLTITGAQAEDEADYYCHSRDSSGNPLHVVFGGGTKLTVL
Regarding B13, the affinity, expressed as Kd, was 104 nM.
